Data on 30 sequences can be found in the Immune Epitope Database (IEDB).

Assay [1] concerns the target HLA-A*03:01. As to the kind of experiment: IEDB peptide-MHC binding, purified MHC/competitive/fluorescence; ≥ and ≤ were set here for values at or beyond the usual limits of such assays.
Assay [2] deals with HLA-A*11:01. The description is as above.
A further assay addresses HLA-A*31:01. As to the kind of experiment: IEDB peptide-MHC binding, purified MHC/competitive/fluorescence; filed as Kd, often an IC50 or EC50 that approximates it; ≥ and ≤ were set here for values at or beyond the usual limits of such assays.
Assay [3] addresses HLA-A*03:01. As to the kind of experiment: IEDB peptide-MHC binding, purified MHC/direct/fluorescence; filed as Kd, often an IC50 or EC50 that approximates it; ≥ and ≤ were set here for values at or beyond the usual limits of such assays.
For the next assay, the target named is HLA-B*83:01. As to the kind of experiment: IEDB peptide-MHC binding, purified MHC/competitive/fluorescence; filed as Kd, often an IC50 or EC50 that approximates it; ≥ and ≤ were set here for values at or beyond the usual limits of such assays.
The target in the next assay is HLA-B*15:42. The description is as above.
Another assay has as its target HLA-B*45:06. Described as above.
For another assay, the target named is HLA-B*40:01. As to the kind of experiment: IEDB peptide-MHC binding, purified MHC/direct/fluorescence; filed as Kd, often an IC50 or EC50 that approximates it; ≥ and ≤ were set here for values at or beyond the usual limits of such assays. The conditions noted are these: source organism: Mycobacterium tuberculosis variant bovis.
Assay [4] deals with HLA-A*69:01. As to the kind of experiment: IEDB peptide-MHC binding, purified MHC/competitive/fluorescence; filed as Kd, often an IC50 or EC50 that approximates it; ≥ and ≤ were set here for values at or beyond the usual limits of such assays.
Assay [5] has as its target HLA-A*02:19. The description is as above. Conditions: source organism: Human immunodeficiency virus 1.
The target in a further assay is HLA-A*02:11. The description is as above.
For assay [6], the target named is HLA-A*02:01. The description is as above.
Assay [7] concerns the target HLA-B*15:01. Described as above. The conditions noted are these: source organism: Escherichia coli 536.
Assay [8] has as its target HLA-A*03:01. The assay is described as above.
For another assay, the target named is HLA-A*29:02. The assay is described as above.
Assay [9] deals with HLA-A*02:01. As to the kind of experiment: IEDB peptide-MHC binding, purified MHC/competitive/fluorescence; ≥ and ≤ were set here for values at or beyond the usual limits of such assays. The conditions noted are these: source organism: Zaire ebolavirus.
For assay [10], the target named is HLA-B*15:17. As to the kind of experiment: IEDB peptide-MHC binding, purified MHC/direct/fluorescence; filed as Kd, often an IC50 or EC50 that approximates it; ≥ and ≤ were set here for values at or beyond the usual limits of such assays. The conditions noted are these: source organism: West Nile virus.
A further assay concerns the target HLA-B*58:01. Described as above. The conditions noted are these: source organism: West Nile virus.
For assay [11], the target named is HLA-B*57:01. Described as above. The conditions noted are these: source organism: West Nile virus.
The target of assay [12] is HLA-A*11:01. The description is as above.
The next assay deals with HLA-A*26:01. As to the kind of experiment: IEDB peptide-MHC binding, purified MHC/competitive/fluorescence; filed as Kd, often an IC50 or EC50 that approximates it; ≥ and ≤ were set here for values at or beyond the usual limits of such assays. The conditions noted are these: source organism: Kurkino virus.
The target in the next assay is HLA-B*27:03. Described as above. Conditions: source organism: Kurkino virus.
The next assay deals with HLA-B*39:01. The description is as above. Conditions: source organism: Kurkino virus.
Assay [13] addresses HLA-B*15:17. Described as above. Conditions: source organism: Kurkino virus.
The target of a further assay is HLA-B*51:01. The assay is described as above. Conditions: source organism: Kurkino virus.
In the next assay the target is HLA-B*46:01. Described as above. Conditions: source organism: Kurkino virus.
For assay [14], the target named is HLA-B*57:01. Described as above. Conditions: source organism: Kurkino virus.
For a further assay, the target named is HLA-B*18:01. The assay is described as above. The conditions noted are these: source organism: Kurkino virus.
For a further assay, the target named is HLA-A*02:12. As to the kind of experiment: IEDB peptide-MHC binding, purified MHC/direct/fluorescence; filed as Kd, often an IC50 or EC50 that approximates it; ≥ and ≤ were set here for values at or beyond the usual limits of such assays. Conditions: source organism: Convict Creek 107 virus.
Assay [15] deals with HLA-A*02:19. The assay is described as above. Conditions: source organism: Convict Creek 107 virus.
Assay [16] has as its target HLA-B*15:01. As to the kind of experiment: IEDB peptide-MHC binding, purified MHC/competitive/fluorescence; ≥ and ≤ were set here for values at or beyond the usual limits of such assays. The conditions noted are these: source organism: Zaire ebolavirus.
Assay [17] addresses HLA-B*15:01. As to the kind of experiment: IEDB peptide-MHC binding, purified MHC/competitive/radioactivity; filed as Kd, often an IC50 or EC50 that approximates it; ≥ and ≤ were set here for values at or beyond the usual limits of such assays. Conditions: source organism: Dengue virus 4 Philippines/H241/1956.
The target of another assay is HLA-A*30:02. The description is as above. The conditions noted are these: source organism: Dengue virus 4 Philippines/H241/1956.
In a further assay the target is HLA-C*05:01. As to the kind of experiment: IEDB peptide-MHC binding, purified MHC/direct/fluorescence; filed as Kd, often an IC50 or EC50 that approximates it; ≥ and ≤ were set here for values at or beyond the usual limits of such assays.
Assay [18] concerns the target HLA-A*69:01. The assay is described as above. The conditions noted are these: source organism: West Nile virus.
[19] abbreviates: source organism: Sudan ebolavirus.
Setting [20] is: source organism: Mycobacterium tuberculosis variant bovis.
Setting [21] is: source organism: Human immunodeficiency virus 1.
Setting [22] is: source organism: Escherichia coli 536.
[23] abbreviates: source organism: Zaire ebolavirus.
[24] abbreviates: source organism: West Nile virus.
Where [25] appears, read: source organism: Vaccinia virus WR.
Setting [26] is: source organism: Vaccinia virus Copenhagen.
[27] abbreviates: source organism: Eastern equine encephalitis virus (STRAIN VA33[TEN BROECK]).
The mark [28] stands for this setting: source organism: Mycobacterium tuberculosis.
Setting [29] is: source organism: Yersinia pestis Nepal516.
Setting [30] is: source organism: Yersinia pestis.
[31] abbreviates: source organism: Brucella abortus bv. 2 str. 86/8/59.
Setting [32] is: source organism: dengue virus type 4.
[33] abbreviates: source organism: Vibrio vulnificus YJ016.

What is called IC50 is the concentration that inhibits the measured activity by half. A high value points to a need for much substance. For the sequence VIAFLILAK, the values for the half-maximal inhibitory concentration (IC50) with HLA-A*03:01 [1] (setting [19]) and in the assay with HLA-A*11:01 [2] (setting [19]) were 1.69 µM and 0.564 µM, respectively.

On to QLPRDKFRK, for which the concentration for half-maximal inhibition (IC50) came to 3.38 µM with HLA-A*03:01 [1] (setting [19]) and 0.723 µM with HLA-A*11:01 [2] (setting [19]).

What is called Kd is the constant that tells how readily two partners part at equilibrium. With RVIPPSLLR, the Kd was found to be 0.0135 µM with HLA-A*31:01 (source organism: Mycobacterium tuberculosis C) and 1.75 µM with HLA-A*03:01 [3] (source organism: Mycobacterium leprae).

In turn, TTQSIHENK had an IC50 in the assay with HLA-A*11:01 [2] (source organism: Vaccinia virus) of 6.04 µM.

As for REAPYELNI, the Kd with HLA-B*83:01 (setting [20]) was at least 5 µM; in the assay with HLA-B*15:42 (setting [20]), at least 5 µM; with HLA-B*45:06 (setting [20]), at least 5 µM; with HLA-B*40:01 it was 0.0628 µM.

With ELADQLIHL, the Kd was at most 0.001 µM with HLA-A*69:01 [4] (setting [21]), 0.00675 µM with HLA-A*02:19 [5], 0.0262 µM in the assay with HLA-A*02:11 (setting [21]) and 1.16 µM in the assay with HLA-A*02:01 [6] (setting [21]).

With KLIAVPHTK, the equilibrium dissociation constant (Kd) is at least 20 µM with HLA-B*15:01 [7], 0.9 µM in the assay with HLA-A*31:01 (setting [22]) and 0.135 µM with HLA-A*03:01 [8] (setting [22]).

In the assay with HLA-A*29:02 (source organism: Vibrio cholerae NCTC 8457), VMADFDLEM yielded a dissociation constant (Kd) of at most 0.0001 µM.

YYFDIYNKQ: the dissociation constant Kd in the assay with HLA-A*29:02 (source organism: Listeria monocytogenes EGD-e) was found to be 0.073 µM.

On to EMYRHILRS, for which the results for the IC50 with HLA-A*03:01 [1] (setting [23]) and in the assay with HLA-A*02:01 [9] were at least 96.9 µM and 8.88 µM, respectively.

Turning to ITYTDVLRY, the dissociation constant Kd in the assay with HLA-A*31:01 (setting [24]) is at least 20 µM; with HLA-B*15:17 [10] it was at most 0.001 µM; in the assay with HLA-B*58:01, 0.038 µM; with HLA-A*03:01 [3] (setting [24]), 0.144 µM; with HLA-B*57:01 [11], 0.105 µM; in the assay with HLA-A*11:01 [12] (setting [24]), 0.0148 µM.

For the sequence KHVGLITCK, the values for the IC50 with HLA-A*03:01 [1] (setting [25]) and with HLA-A*11:01 [2] (setting [25]) were 47.2 µM and at least 80 µM, respectively.

Turning to TITEKTFKD, the IC50 with HLA-A*11:01 [2] (setting [26]) worked out at 36.5 µM.

As for TKLYKNKSK, the IC50 with HLA-A*03:01 [1] (setting [26]) came to 44.3 µM; with HLA-A*11:01 [2] (setting [26]), 57.5 µM.

ITYGSVSWR: the Kd in the assay with HLA-A*31:01 (source organism: Eastern equine encephalitis virus) was 0.0015 µM; with HLA-A*03:01 [3] (setting [27]), 0.0612 µM; with HLA-A*11:01 [12] (setting [27]), 0.0068 µM.

AAMVLLLRK: the equilibrium dissociation constant (Kd) was at least 20 µM in the assay with HLA-A*31:01 (source organism: Mycobacterium tuberculosis variant bovis BCG str. Pasteur 1173P2), 0.0795 µM with HLA-A*03:01 [3] (setting [28]) and at most 0.001 µM with HLA-A*11:01 [12] (setting [28]).

Consider GSYFSGFYK, for which the Kd in the assay with HLA-B*83:01 (setting [29]) is at least 5 µM; with HLA-B*15:42 (setting [29]), at least 5 µM; with HLA-A*31:01 (setting [29]), at most 0.001 µM; with HLA-B*45:06 (setting [29]), at least 5 µM; in the assay with HLA-A*03:01 [3] (setting [30]), 0.0137 µM; with HLA-A*11:01 [12] (setting [30]) it was at most 0.001 µM.

Consider WFLYVSQQI, for which the equilibrium dissociation constant (Kd) with HLA-A*69:01 [4] (source organism: Kurkino virus), with HLA-A*26:01, in the assay with HLA-B*27:03, with HLA-B*39:01, with HLA-B*15:17 [13] and with HLA-B*51:01 was at least 20 µM throughout. Besides, the Kd with HLA-B*46:01, with HLA-B*57:01 [14], in the assay with HLA-B*18:01, with HLA-A*02:12, in the assay with HLA-A*02:19 [15] and with HLA-A*03:01 [3] (source organism: Convict Creek 107 virus) was at least 20 µM throughout.

Take ILDDPEIYP: the values for the equilibrium dissociation constant (Kd) with HLA-A*02:11 (setting [31]) and in the assay with HLA-A*02:01 [6] (setting [31]) were 0.677 µM and 12 µM, respectively.

For ANNNRLPKR, the IC50 with HLA-A*11:01 [2] (setting [25]) is 11.7 µM. This counts as double-digit micromolar.

For the sequence ASLPKTSGH, the IC50 is at least 143 µM with HLA-B*15:01 [16], 20.1 µM with HLA-A*03:01 [1] (setting [23]) and 2.61 µM in the assay with HLA-A*11:01 [2] (setting [23]).

On to ATTAAGPPK, for which the 50% inhibitory concentration (IC50) with HLA-A*03:01 [1] (setting [23]) is 6.3 µM; in the assay with HLA-A*11:01 [2] (setting [23]), 0.762 µM; in the assay with HLA-A*02:01 [9], at least 354 µM.

Turning to KVASAGISY, the dissociation constant Kd in the assay with HLA-B*15:01 [17] is 0.00185 µM; with HLA-A*30:02, 0.0404 µM; with HLA-A*31:01 (setting [32]) it was at least 20 µM; with HLA-A*11:01 [12] (setting [32]) it was 0.0521 µM.

For FPSVFINPV, in the assay with HLA-C*05:01 (source organism: Myxoma virus), the Kd was at least 20 µM.

YFNDPALGH: in the assay with HLA-A*29:02 (source organism: Giardia lamblia ATCC 50803), the Kd came to 0.114 µM.

Consider ATGFPFFDR, for which the figures for the Kd in the assay with HLA-A*31:01 (setting [33]), in the assay with HLA-A*03:01 [3] (setting [33]) and in the assay with HLA-A*11:01 [12] (setting [33]) were 0.00235 µM, at least 20 µM and 0.0011 µM, respectively.

For IFFLPQFYY, the equilibrium dissociation constant (Kd) in the assay with HLA-A*29:02 (source organism: Listeria monocytogenes FSL R2-561) is 0.0016 µM.

MLYKSSKSR: the Kd stood at 0.0517 µM with HLA-A*31:01 (source organism: Kurkino virus) and 0.0032 µM in the assay with HLA-A*03:01 [8] (source organism: Kurkino virus).

As for VQQGIVRQR, the concentration for half-maximal inhibition (IC50) is at least 160 µM with HLA-A*03:01 [1] (setting [23]) and 8.37 µM in the assay with HLA-A*11:01 [2] (setting [23]).

Take FLAVGGVLL: the figures for the Kd with HLA-A*69:01 [18] and with HLA-C*05:01 (setting [24]) were at least 20 µM and 4.18 µM, respectively.
